± gives the standard error. For part of these data: Fewer inactive variants are shown than the library holds.
B1: glmS ribozyme (parent)
chain: AUAAAAGCGCCAGAACUACAGAAAUGUAGUUGACGAGGAGGAGGUUUAUCGAAUUUUCGGCGGAUGCCUCCAAA

Legend:
Conditions in all cases: with glucosamine-6-phosphate
glucosamine-6-phosphate [1] = variants of: B1; experiment: kcat; higher = faster cleavage; RNA array
Summary of the method: (§1)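 Barcoded ribozyme variants, transcribed in situ by E. coli RNA polymerase on sequenced MiSeq chips, were followed via a hybridised Cy3 probe at 37 °C. Glucosamine-6-phosphate ranged from 40 μM to 10 mM in HEPES/KCl/Mg(OAc)2 buffer. kobs came from decay fits to per-tile medians, and kcat and KM from weighted Michaelis–Menten fits.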

glucosamine-6-phosphate [2] = variants of: B1; experiment: self-cleavage kobs at 640 uM GlcN6P; higher = faster cleavage; RNA array
Summary of the method: as §1

glucosamine-6-phosphate [3] = variants of: B1; experiment: self-cleavage kobs at 2500 uM GlcN6P; higher = faster cleavage; RNA array
Summary of the method: as §1

glucosamine-6-phosphate [4] = variants of: B1; experiment: self-cleavage kobs at 10000 uM GlcN6P; higher = faster cleavage; RNA array
Summary of the method: as §1

glucosamine-6-phosphate [5] = variants of: B1; experiment: self-cleavage kobs at 40 uM GlcN6P; higher = faster cleavage; RNA array
Summary of the method: as §1

glucosamine-6-phosphate [6] = variants of: B1; experiment: self-cleavage kobs at 160 uM GlcN6P; higher = faster cleavage; RNA array
Summary of the method: as §1

glucosamine-6-phosphate [7] = variants of: B1; experiment: KM; higher = weaker cofactor use; RNA array
Summary of the method: as §1

Variant	kcat (glucosamine-6-phosphate [1]) [s⁻¹]	self-cleavage kobs at 640 uM GlcN6P (glucosamine-6-phosphate [2]) [s⁻¹]	self-cleavage kobs at 2500 uM GlcN6P (glucosamine-6-phosphate [3]) [s⁻¹]	self-cleavage kobs at 10000 uM GlcN6P (glucosamine-6-phosphate [4]) [s⁻¹]	self-cleavage kobs at 40 uM GlcN6P (glucosamine-6-phosphate [5]) [s⁻¹]	self-cleavage kobs at 160 uM GlcN6P (glucosamine-6-phosphate [6]) [s⁻¹]	KM (glucosamine-6-phosphate [7]) [µM]
C34G U46G C50U C67U	1.54e-05 ± 5.4e-06	–	–	–	–	–	–
A33U U54A	0.000116 ± 2e-05	6.35e-05 ± 1.7e-05	7.03e-05 ± 1.2e-05	0.000117 ± 1.6e-05	–	–	–
A33U U54G	0.000139 ± 4.4e-05	4.57e-05 ± 1.6e-05	5.67e-05 ± 9.8e-06	0.000111 ± 1.8e-05	< 1e-05	< 1e-05	–
A33C U46A	3.08e-05 ± 7.5e-06	–	3.48e-05 ± 1.7e-05	–	–	< 1e-05	–
G32U U49G	5.32e-05 ± 7.1e-06	–	4.54e-05 ± 1.2e-05	4.7e-05 ± 6.6e-06	< 1e-05	–	–
A33U G41U	2.33e-05 ± 1.9e-06	–	2.26e-05 ± 8e-06	2.14e-05 ± 6.8e-06	< 1e-05	< 1e-05	–
G32U U47A	0.000688 ± 0.00026	8.3e-05 ± 2e-05	0.000375 ± 0.00014	0.000493 ± 0.00011	–	5.78e-05 ± 1.8e-05	–
C34G C67U	< 1e-05	< 1e-05	–	–	–	–	–
G32A G41U	0.000608 ± 0.00022	5.48e-05 ± 9e-06	0.000125 ± 2e-05	0.00037 ± 5.5e-05	–	–	–
G32C U47A	4.35e-05 ± 2.1e-06	–	2.87e-05 ± 1.3e-05	3.77e-05 ± 9.7e-06	–	–	1450 ± 320
G32C U47G	1.21e-05 ± 1.1e-07	–	–	–	–	–	403 ± 39
A33U C70G	1.5e-05 ± 1.8e-06	–	–	–	–	–	–
A33C C58G	1.09e-05 ± 3.4e-06	–	–	–	–	–	–
G32A G60U	< 1e-05	–	–	< 1e-05	–	< 1e-05	–
A33U U65A	3.37e-05 ± 1.5e-06	< 1e-05	–	–	< 1e-05	< 1e-05	–
A33G U69A	3.15e-05 ± 1.4e-05	–	–	–	–	4.13e-05 ± 1.5e-05	–
G32U A36U	< 1e-05	–	–	< 1e-05	< 1e-05	< 1e-05	–
G32U U45A	0.00202 ± 0.00071	0.000279 ± 6.8e-05	0.000762 ± 0.00034	0.00155 ± 0.0003	0.000103 ± 3.9e-05	9.56e-05 ± 2.1e-05	3440 ± 1700
G32A U57A	3.77e-05 ± 3.1e-06	–	–	2.89e-05 ± 9.1e-06	–	< 1e-05	3000 ± 970
A33U U49G	1.42e-05 ± 5.2e-07	< 1e-05	–	–	–	< 1e-05	44.7 ± 12

Variant	kcat (glucosamine-6-phosphate [1]) [s⁻¹]	self-cleavage kobs at 640 uM GlcN6P (glucosamine-6-phosphate [2]) [s⁻¹]	self-cleavage kobs at 2500 uM GlcN6P (glucosamine-6-phosphate [3]) [s⁻¹]	self-cleavage kobs at 10000 uM GlcN6P (glucosamine-6-phosphate [4]) [s⁻¹]	self-cleavage kobs at 40 uM GlcN6P (glucosamine-6-phosphate [5]) [s⁻¹]	self-cleavage kobs at 160 uM GlcN6P (glucosamine-6-phosphate [6]) [s⁻¹]	KM (glucosamine-6-phosphate [7]) [µM]
A33U C71U	0.000125 ± 1.3e-05	3.01e-05 ± 7.2e-06	5.58e-05 ± 5.4e-06	0.0001 ± 9.1e-06	–	–	2840 ± 690
G32U C68G	1.3e-05 ± 1.3e-06	–	–	–	–	–	–
A33U C50U G59U	1.02e-05 ± 3e-06	–	–	–	–	–	–
C34G C68A	2.06e-05 ± 8.4e-06	–	–	–	–	–	–
G32U C71G	0.000107 ± 7.3e-06	6.13e-05 ± 1.6e-05	7.51e-05 ± 9.8e-06	0.000102 ± 8.2e-06	–	–	741 ± 280
G32U C71U	0.00136 ± 0.0003	0.000146 ± 1.1e-05	0.00037 ± 3.3e-05	0.000927 ± 7.7e-05	–	6.14e-05 ± 1.3e-05	5540 ± 1700
A33U G41A U54G	3.66e-05 ± 1.4e-06	–	–	2.88e-05 ± 1.2e-05	–	–	2720 ± 360
G32C C71G	1.39e-05 ± 7.5e-07	–	–	–	–	–	86.6 ± 35
G32U G40C	0.000104 ± 1.3e-05	2.66e-05 ± 1.3e-05	7.79e-05 ± 1.1e-05	8.66e-05 ± 1.3e-05	–	–	1250 ± 520
G32U G40U	0.000265 ± 3e-05	1.68e-05 ± 7.3e-06	7.08e-05 ± 7.2e-06	0.000153 ± 1.6e-05	–	–	7170 ± 1300
G32C C50G	5.17e-05 ± 1.5e-05	6.25e-05 ± 2e-05	–	–	4.21e-05 ± 1.5e-05	–	–
G32A U56A	0.000939 ± 0.0002	9.47e-05 ± 1.5e-05	0.000295 ± 4.3e-05	0.000619 ± 9.9e-05	–	4.57e-05 ± 1.5e-05	5360 ± 1600
G32A U56C	0.000235 ± 2.8e-05	4.72e-05 ± 1e-05	9.95e-05 ± 1.6e-05	0.000191 ± 3.1e-05	–	–	2950 ± 670
A33U A53G	3.38e-05 ± 6.8e-06	–	3.39e-05 ± 1e-05	2.98e-05 ± 6.7e-06	< 1e-05	–	–
A33G C68A	1.39e-05 ± 1.5e-06	–	–	–	–	–	–
C34G G63U C68G	2.21e-05 ± 7.4e-06	–	–	–	–	–	–
A33C G38U	< 1e-05	< 1e-05	–	< 1e-05	< 1e-05	< 1e-05	–
G32C U55C	0.000106 ± 1.3e-05	–	2.78e-05 ± 1.4e-05	6.12e-05 ± 1.1e-05	–	< 1e-05	7360 ± 1900
G32C U55G	0.000137 ± 1.4e-05	–	2.64e-05 ± 8.4e-06	6.68e-05 ± 1.2e-05	–	–	–
G32U G51U U55A	1.45e-05 ± 2.5e-06	–	–	–	–	–	–
